{
  "source": "paper PMC3225178",
  "molecular_target": "SmLip residues 27-176 (mature Lip minus signal peptide) fused to T18 (pSC072) or to T25 (pSC080) (Serratia marcescens)",
  "test": "two-hybrid",
  "data": [
    {"substance": "SmLip residues 27-176 (mature Lip minus signal peptide) fused to T18 (pSC072) or to T25 (pSC080) (domain or fragment)", "values": [
      {"measurement": "β-galactosidase activity (two-hybrid output)", "result": "> 5000", "unit": "Miller units"}
    ]}
  ]
}
